Results as given in PMC11414720, “Molecular basis of TMED9 oligomerization and entrapment of misfolded protein cargo in the early secretory pathway” (Science Advances, 2024).
Values joined by “and” are separate entries in the source; they are usually repeats but may differ in a detail not shown here. Equal values may be shown once.

What was measured:
[1] = target: the molecule itself; assay: cryo-EM structure; purified TMED9 at 1.7 mg/ml in 20 mM tris pH 8.0, 150 mM NaCl, 0.02% LMNG+CHS; octamer refined with C2 symmetry, dodecamer with no symmetry
[2] = target: the molecule itself; assay: mass photometry; Refeyn TwoMP; samples in 0.003% LMNG, 0.0003% CHS diluted from 7 μM into 25 mM Hepes pH 7.4, 150 mM KCl, 1 mM DTT, measured within 10 s
[3] = target: the molecule itself; assay: SEC; gel filtration of overexpressed protein in octyl-β-glucoside, a harsher detergent
[4] = target: the molecule itself; assay: SEC; Superose 6 gel filtration of TMED9 purified on anti-FLAG resin in LMNG+CHS (20 mM tris pH 8.0, 150 mM NaCl); solubilization by digitonin or glyco-diosgenin gave a similar size distribution

| Protein | binding result [4] | binding result [2] | further results |
| --- | --- | --- | --- |
| full-length human TMED9 (transmembrane emp24 domain 9), FLAG-tagged (receptor, UniProt Q9BVK6 38-235, looked up, TMED9 (transmembrane emp24 domain 9), human, full length; Seen as octamer, dodecamer and higher-order oligomers; the rows are of the chain with itself; TMED9 has a signal peptide; No cleavage of the tag is described; also called WT TMED9; recombinant TMED9; source: Expi293F, transiently transfected, purified in LMNG+CHS (anti-FLAG resin, Superose 6 gel filtration); not shown: FLAG, N-terminal, …) LYFHIGETEKKCFIEEIPDETMVIGNYRTQLYDKQREEYQPATPGLGMFVEVKDPEDKVILARQYGSEGRFTFTSHTPGEHQICLHSNSTKFSLFAGGMLRVHLDIQVGEHANDYAEIAAKDKLSELQLRVRQLVEQVEQIQKEQNYQRWREERFRQTSESTNQRVLWWSILQTLILVAIGVWQMRHLKSFFEAKKLV | – | – | stoichiometry N [1]: 8 and 12; stoichiometry N [2]: ≥ 8; stoichiometry N [3]: 2 |
| TMED9 R191E (receptor, human, UniProt Q9BVK6 38-235, looked up, TMED9, human, mutant of the full-length protein; also called CC interface mutation R191E) LYFHIGETEKKCFIEEIPDETMVIGNYRTQLYDKQREEYQPATPGLGMFVEVKDPEDKVILARQYGSEGRFTFTSHTPGEHQICLHSNSTKFSLFAGGMLRVHLDIQVGEHANDYAEIAAKDKLSELQLRVRQLVEQVEQIQKEQNYQRWREEEFRQTSESTNQRVLWWSILQTLILVAIGVWQMRHLKSFFEAKKLV | binds | – | – |
| TMED9 W205A (receptor, human, UniProt Q9BVK6 38-235, looked up, TMED9, human, mutant of the full-length protein; also called CC interface mutation W205A) LYFHIGETEKKCFIEEIPDETMVIGNYRTQLYDKQREEYQPATPGLGMFVEVKDPEDKVILARQYGSEGRFTFTSHTPGEHQICLHSNSTKFSLFAGGMLRVHLDIQVGEHANDYAEIAAKDKLSELQLRVRQLVEQVEQIQKEQNYQRWREERFRQTSESTNQRVLAWSILQTLILVAIGVWQMRHLKSFFEAKKLV | binds | – | – |
| TMED9 R223E (for gel filtration and mass photometry) (receptor, human, UniProt Q9BVK6 38-235, looked up, TMED9, human, mutant of the full-length protein) LYFHIGETEKKCFIEEIPDETMVIGNYRTQLYDKQREEYQPATPGLGMFVEVKDPEDKVILARQYGSEGRFTFTSHTPGEHQICLHSNSTKFSLFAGGMLRVHLDIQVGEHANDYAEIAAKDKLSELQLRVRQLVEQVEQIQKEQNYQRWREERFRQTSESTNQRVLWWSILQTLILVAIGVWQMEHLKSFFEAKKLV | – | binds | – |
| TMED9 E190R (receptor, human, UniProt Q9BVK6 38-235, looked up, TMED9, human, mutant of the full-length protein; also called CC domain mutation E190R) LYFHIGETEKKCFIEEIPDETMVIGNYRTQLYDKQREEYQPATPGLGMFVEVKDPEDKVILARQYGSEGRFTFTSHTPGEHQICLHSNSTKFSLFAGGMLRVHLDIQVGEHANDYAEIAAKDKLSELQLRVRQLVEQVEQIQKEQNYQRWRERRFRQTSESTNQRVLWWSILQTLILVAIGVWQMRHLKSFFEAKKLV | – | binds | – |
| TMED9 Q177A (receptor, human, UniProt Q9BVK6 38-235, looked up, TMED9, human, mutant of the full-length protein; also called CC interface mutation Q177A) LYFHIGETEKKCFIEEIPDETMVIGNYRTQLYDKQREEYQPATPGLGMFVEVKDPEDKVILARQYGSEGRFTFTSHTPGEHQICLHSNSTKFSLFAGGMLRVHLDIQVGEHANDYAEIAAKDKLSELQLRVRQLVEQVEAIQKEQNYQRWREERFRQTSESTNQRVLWWSILQTLILVAIGVWQMRHLKSFFEAKKLV | binds | – | – |
